Results as given in paper doi:10.1101/2024.10.11.617910.

Target: pyroglutamate beta-amyloid peptide (pGlu3-Aβ)
Assay: SiMoA

limit of detection (LoD): 4 pM
B1: Lecanemab (antibody, V domains shown)
VH: EVQLVESGGGLVQPGGSLRLSCSASGFTFSSFGMHWVRQAPGKGLEWVAYISSGSSTIYYGDTVKGRFTISRDNAKNSLFLQMSSLRAEDTAVYYCAREGGYYYGRSYYTMDYWGQGTTVTVSS
VL: DVVMTQSPLSLPVTPGAPASISCRSSQSIVHSNGNTYLEWYLQKPGQSPKLLIYKVSNRFSGVPDRFSGSGSGTDFTLRISRVEAEDVGIYYCFQGSHVPPTFGPGTKLEIK
